Measured values reported in US20100041597A1 (published 2010).
Values belong to the binder of their own block, whether it stands above or below them.

How the values were obtained:
[1] = target: T1, PKC-ι (endogenous, human cell extracts) (human, UniProt P41743 2-596); assay: Western-blot competition on cell extracts against the anti-PKC-ι primary antibody; band densitometry
T1 construct: also called PKC-iota
T1 sequence (looked up): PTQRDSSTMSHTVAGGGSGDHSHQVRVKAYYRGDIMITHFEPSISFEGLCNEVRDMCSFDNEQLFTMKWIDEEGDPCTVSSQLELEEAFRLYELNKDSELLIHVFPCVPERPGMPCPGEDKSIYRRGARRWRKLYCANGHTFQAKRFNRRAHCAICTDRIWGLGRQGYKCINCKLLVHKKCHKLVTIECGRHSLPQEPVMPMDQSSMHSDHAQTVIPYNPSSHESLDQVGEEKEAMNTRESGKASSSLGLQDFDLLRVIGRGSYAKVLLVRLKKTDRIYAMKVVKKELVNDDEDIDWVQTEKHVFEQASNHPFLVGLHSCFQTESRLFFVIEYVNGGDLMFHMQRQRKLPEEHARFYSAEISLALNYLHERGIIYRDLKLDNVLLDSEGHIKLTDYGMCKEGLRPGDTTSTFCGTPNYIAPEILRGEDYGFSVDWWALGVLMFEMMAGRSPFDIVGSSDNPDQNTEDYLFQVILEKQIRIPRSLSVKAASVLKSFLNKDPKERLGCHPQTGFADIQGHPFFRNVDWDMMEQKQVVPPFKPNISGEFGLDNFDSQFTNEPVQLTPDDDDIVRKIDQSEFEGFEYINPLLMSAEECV

[2] = target: T2, PKC-ζ (endogenous, human cell extracts) (human, UniProt Q05513 1-592); assay: Western-blot competition on cell extracts against the anti-PKC-ζ primary antibody; band densitometry
T2 construct: also called PKC-zeta
T2 sequence (looked up): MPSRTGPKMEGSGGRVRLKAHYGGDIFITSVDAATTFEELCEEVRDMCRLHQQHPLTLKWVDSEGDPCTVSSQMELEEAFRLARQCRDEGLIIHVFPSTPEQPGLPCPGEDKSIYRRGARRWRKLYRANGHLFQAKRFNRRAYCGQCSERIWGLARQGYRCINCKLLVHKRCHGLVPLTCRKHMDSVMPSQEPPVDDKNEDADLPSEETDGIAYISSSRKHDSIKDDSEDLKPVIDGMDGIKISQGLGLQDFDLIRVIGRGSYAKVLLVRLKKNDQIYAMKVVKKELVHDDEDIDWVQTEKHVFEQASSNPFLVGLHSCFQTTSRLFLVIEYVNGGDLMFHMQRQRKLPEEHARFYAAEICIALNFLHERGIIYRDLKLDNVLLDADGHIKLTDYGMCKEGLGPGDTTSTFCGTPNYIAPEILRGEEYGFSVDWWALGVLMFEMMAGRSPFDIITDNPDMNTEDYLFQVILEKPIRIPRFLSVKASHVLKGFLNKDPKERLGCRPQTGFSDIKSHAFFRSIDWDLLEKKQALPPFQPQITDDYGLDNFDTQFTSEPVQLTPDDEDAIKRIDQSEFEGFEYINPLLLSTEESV
Method: Binding efficiency and specificity of the peptides PRE 2, 3, 4, 5, 6, 7, 8, 9, 10, 11, 12 and 13 (see Table 3) was also tested using cytoplasmic extracts from different cell lines expressing appropriate PKC isoforms as described for Example 1. Briefly, the protein cytoplasmic extracts were separated by electrophoresis and transferred onto nitrocellulose membranes by standard Western blotting procedures. The bands on the Western blots were detected with matching primary antibodies and alkaline phosphatase conjugated secondary antibody. The bands were then scanned and the relative density measurements obtained.
This procedure to assess the binding characteristics of the PREs is based on competition binding of the PRE with the primary anti-isoform PKC specific antibodies. The lower the measured band density, the greater the binding of the PRE to the PKC isoform. The PREs were added at 10 and 20 times (10×, 20×) the primary antibody concentration, according to classical competition between antigenic peptide and primary antibody. The following cell lines (obtained from the ATCC) were used: H661—NCI human lung carcinoma NSCLC; MDAMB231—human highly invasive breast cancer cell line from pleural effusion; LS180—human colon adenocarcinoma; LnCAP—human prostate adenocarcinoma; CCD16Lu—human lung fibroblasts; Du145—human prostate carcinoma brain metastasis, and T24—human bladder carcinoma.

[3] = target: T3, PKC-ε (endogenous, human cell extracts) (human, UniProt Q02156 1-737); assay: Protocol B blot competition, IMR-32 extract, competitor anti-PKC-ε Ab, Band 1; PRE 50 µg
T3 construct: Two bands on the blot, said to be alternate splicing variants; also called PKC-epsilon; PKC-ε Band 1
T3 sequence (looked up): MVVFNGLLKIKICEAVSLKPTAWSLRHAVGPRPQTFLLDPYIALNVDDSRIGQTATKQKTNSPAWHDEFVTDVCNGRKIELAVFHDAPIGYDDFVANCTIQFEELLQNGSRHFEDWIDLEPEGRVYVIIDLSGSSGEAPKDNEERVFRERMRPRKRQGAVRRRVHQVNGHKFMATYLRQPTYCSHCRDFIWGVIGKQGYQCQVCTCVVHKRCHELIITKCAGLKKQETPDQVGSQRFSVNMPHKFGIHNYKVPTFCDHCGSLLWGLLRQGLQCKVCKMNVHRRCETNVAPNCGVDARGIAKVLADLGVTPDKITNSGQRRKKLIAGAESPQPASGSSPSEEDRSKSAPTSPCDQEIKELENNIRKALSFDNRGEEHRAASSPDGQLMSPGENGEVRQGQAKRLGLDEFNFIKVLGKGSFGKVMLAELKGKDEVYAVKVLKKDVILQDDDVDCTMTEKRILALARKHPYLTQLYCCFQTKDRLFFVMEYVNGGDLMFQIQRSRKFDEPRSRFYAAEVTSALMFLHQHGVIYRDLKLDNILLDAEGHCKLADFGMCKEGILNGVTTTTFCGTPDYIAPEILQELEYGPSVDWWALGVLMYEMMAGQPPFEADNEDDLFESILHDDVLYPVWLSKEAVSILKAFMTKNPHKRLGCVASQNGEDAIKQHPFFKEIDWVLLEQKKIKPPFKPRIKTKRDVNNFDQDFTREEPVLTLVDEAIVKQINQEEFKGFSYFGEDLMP
Method: The ability of the peptides PRE 2 and PRE 3 (see Table 3) to interfere with the binding of a PKC-α-specific polyclonal antibody (Santa Cruz Biotechnology, Inc.) to PKC-α was determined using a modified version of the protocol outlined above in which the test peptide was added directly to the cell extract prior to electrophoresis at a concentration of either 5× or 15× the concentration of the protein applied to each well of the gel for the Western blots (20 μg).
Peptides PRE 2, PRE 3 and PRE 4 (see Table 3) were tested for their ability to interfere with the binding of isoform-specific polyclonal antibodies (Santa Cruz Biotechnology, Inc.) to PKC-ε using the general protocol described in Example 3. Two bands, representing alternate splicing variants of PKC-ε, were identified on the Western blot using this anti-PKC-ε antibody.

B1: PRE 12 (peptide)
peptide: Ac-KDAQNLI-NH2
notes: Synthetic peptide; also called peptide PRE 12; Ac-KDAQNLI-NH2
binding result [1]: no binding (tested: 20X the primary antibody concentration)

B2: PRE 13 (peptide)
peptide: Ac-RDAQNLI-NH2
notes: Synthetic peptide; also called peptide PRE 13; Ac-RDAQNLI-NH2
binding result [2]: no binding (tested: 20X the primary antibody concentration)

band intensity [3]: 0 | inhibition (%) [3]: 100% | relative intensity (%) [3]: 0%
B3: PRE 4 (peptide)
peptide: Ac-KDAQNLIGISI-NH2
notes: Synthetic peptide; also called peptide PRE 4

band intensity [3]: 0 | inhibition (%) [3]: 100% | relative intensity (%) [3]: 0%
B4: PRE 3 (peptide)
peptide: Ac-AKGIQEVKGGDAQNLIGISI-NH2
notes: Synthetic peptide; also called peptide PRE 3

B5: PRE 6 (peptide)
peptide: Ac-KDANQLIGISI-NH2
notes: Synthetic peptide; also called peptide PRE 6
binding result [2]: no binding (tested: 20X the primary antibody concentration)
